Holding throughout (assay): SPOT array
Assay [1] addresses T1, Boi1 SH3 (BOI1_YEAST), P38041.
T1 chain: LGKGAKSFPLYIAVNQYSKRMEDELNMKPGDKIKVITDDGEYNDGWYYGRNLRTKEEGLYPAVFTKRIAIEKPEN

Assay [2] addresses T2, Boi2 SH3 (BOI2_YEAST), P39969.
T2 chain: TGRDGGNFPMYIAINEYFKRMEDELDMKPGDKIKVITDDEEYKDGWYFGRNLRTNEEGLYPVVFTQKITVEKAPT

The target of assay [3] is T3, Rvs167 SH3 (RV167_YEAST), P39743.
T3 chain: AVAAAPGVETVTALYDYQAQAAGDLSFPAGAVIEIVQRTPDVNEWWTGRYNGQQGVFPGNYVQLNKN

In assay [4] the target is T4, Yfr024 SH3 (LSB3_YEAST), P43603.
T4 chain: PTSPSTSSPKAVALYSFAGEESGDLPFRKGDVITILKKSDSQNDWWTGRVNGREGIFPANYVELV

Assay [5] has as its target T5, Yhr016c SH3 (YSC84_YEAST), P32793.
T5 chain: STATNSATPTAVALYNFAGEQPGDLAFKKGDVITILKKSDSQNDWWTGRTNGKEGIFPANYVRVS

For the molecule KHAPFIPVKPALEK [YPR095C 158-171], the normalised SPOT signal, Boehringer light units (BLU); mean over the file's lines of this peptide came to 92 in assay [1]; 27.4 in assay [2]; 21.7 in assay [3]; 907 in assay [4]; 65.2 in assay [5].

In the case of KDYPLSPPKLTFTP [YMR022W 62-75], the normalised SPOT signal, Boehringer light units (BLU); mean over the file's lines of this peptide worked out at 73 in assay [1]; 33.9 in assay [2]; 25.5 in assay [3]; 16 in assay [4]; 10.6 in assay [5].

Turning to KKDPNAPKRALSAY [YPR052C 15-28], the normalised SPOT signal, Boehringer light units (BLU); mean over the file's lines of this peptide stood at 57 in assay [1]; 19.5 in assay [2]; 25.3 in assay [3]; 286 in assay [4]; 162 in assay [5].

As for KKSPRLPHRNKKVT [YPR097W 347-360], the normalised SPOT signal, Boehringer light units (BLU); mean over the file's lines of this peptide in assay [1] is 110; in assay [2], 46.7; in assay [3] it was 2650; in assay [4], 7040; in assay [5], 1790.

Take KERPKPPNKGDVGR [YOR233W 333-346]: the normalised SPOT signal, Boehringer light units (BLU); mean over the file's lines of this peptide in assay [1] worked out at 168; in assay [2], 23.8; in assay [3], 10.8; in assay [4] it was 326; in assay [5] it was 60.1.

As to KELPEFPIKKYHKR [YMR266W 741-754], the normalised SPOT signal, Boehringer light units (BLU); mean over the file's lines of this peptide worked out at 119 in assay [1]; 22 in assay [2]; 29.9 in assay [3]; 1070 in assay [4]; 6.2 in assay [5].

With KLGPDTPIKVAGPL [YOR219C 616-629], the normalised SPOT signal, Boehringer light units (BLU); mean over the file's lines of this peptide in assay [1] was 17.6; in assay [2] it was 16.9; in assay [3], 66; in assay [4], 196; in assay [5], 105.

With KLEPENPQKPSNTH [YFL054C 238-251], the normalised SPOT signal, Boehringer light units (BLU); mean over the file's lines of this peptide in assay [1] was determined as 76; in assay [2] it was 90.6; in assay [3] it was 15.8; in assay [4], 11.4; in assay [5], 94.6.

With KKLPTGPSKKRQRK [YER164W 1280-1293], the normalised SPOT signal, Boehringer light units (BLU); mean over the file's lines of this peptide in assay [1] came out at 136; in assay [2] it was 32.6; in assay [3] it was 9.1; in assay [4] it was 808; in assay [5] it was 85.9.

As for KKDPFPPPKDLLVQ [YGR140W 421-434], the normalised SPOT signal, Boehringer light units (BLU); mean over the file's lines of this peptide in assay [1] worked out at 103; in assay [2], 49.2; in assay [3], 12.2; in assay [4] it was 332; in assay [5] it was 109.

For KGAPFFPNKTFRKL [YPR144C 138-151], the normalised SPOT signal, Boehringer light units (BLU); mean over the file's lines of this peptide in assay [1] was 142; in assay [2], 64.9; in assay [3], 83.7; in assay [4] it was 995; in assay [5] it was 792.

Turning to KKDPNAPKRRLSAY [YBR089C-A 21-34], the normalised SPOT signal, Boehringer light units (BLU); mean over the file's lines of this peptide in assay [1] came out at 190; in assay [2], 46.3; in assay [3], 151; in assay [4], 241; in assay [5] it was 288.

Take KISPSAPSKDSFTK [YAR002W 350-363]: the normalised SPOT signal, Boehringer light units (BLU); mean over the file's lines of this peptide in assay [1] came out at 160; in assay [2] it was 1.3; in assay [3], 79.2; in assay [4], 178; in assay [5], 92.4.

For the molecule KKPPKIPKKVYTLE [YPR104C 439-452], the normalised SPOT signal, Boehringer light units (BLU); mean over the file's lines of this peptide in assay [1] turned out to be 56.8; in assay [2], 22; in assay [3], 33.3; in assay [4], 1300; in assay [5], 112.

KFIPNKPYRQFNTW [YGR019W 339-352]: the normalised SPOT signal, Boehringer light units (BLU); mean over the file's lines of this peptide in assay [1] amounted to 30.9; in assay [2], 55.9; in assay [3], 51.7; in assay [4], 1220; in assay [5], 417.

In the case of KDHPYDPEKDSVLK [YGR020C 97-110], the normalised SPOT signal, Boehringer light units (BLU); mean over the file's lines of this peptide in assay [1] was 51.3; in assay [2] it was 3.7; in assay [3], 21.7; in assay [4] it was 0; in assay [5], 0.

Consider KKYPRKPKKNLNLG [YDR485C 336-349], for which the normalised SPOT signal, Boehringer light units (BLU); mean over the file's lines of this peptide is 181 in assay [1]; 68.1 in assay [2]; 9.5 in assay [3]; 149 in assay [4]; 408 in assay [5].

For KFHPPEPYKGKGIY [YHR147C 187-200], the normalised SPOT signal, Boehringer light units (BLU); mean over the file's lines of this peptide was found to be 96.1 in assay [1]; 38.2 in assay [2]; 53.2 in assay [3]; 45.7 in assay [4]; 114 in assay [5].

For the molecule KIMPPTPAKKVEFI [YAL024C 312-325], the normalised SPOT signal, Boehringer light units (BLU); mean over the file's lines of this peptide in assay [1] worked out at 32; in assay [2], 180; in assay [3] it was 178; in assay [4] it was 3000; in assay [5], 682.

(Values after article PMC314469, “Protein Interaction Networks by Proteome Peptide Scanning” (PLoS Biology, 2004).)
